Laboratory results: US20180120314

Tests used:
[1] = target: T1, Methyl Red (MR)-AAPV-NBD-UBI29-41
T1 chain: AAPVKTGRAKRRMQYNRR

[2] = target: TAMRA-AAPV-NBD-PMX

B1: human neutrophil elastase (HNE) (protein)
chain: IVGGRRARPHAWPFMVSLQLRGGHFCGATLIAPNFVMSAAHCVANVNVRAVRVVLGAHNLSRREPTRQVFAVQRIFENGYDPVNLLNDIVILQLNGSATINANVQVAQLPAQGRRLGNGVQCLAMGWGLLGRNRGIASVLQELNVTVVTSLCRRSNVCTLVRGRQAGVCFGDSGSPLVCNGLIHGIASFVRGGCASGLYPDAFAPVAQFVNWIDSIIQ
[1]
  bacterial labelling (NBD fluorescence, confocal microscopy) after cleavage of the probe in a co-culture of bacteria and neutrophils: These images confirm the ability of the probe to be cleaved by neutrophil derived HNE and to label bacteria
[2]
  bacterial labelling by NBD fluorescence (confocal microscopy) after cleavage of the probe: Once the probe has been cleaved by elastase, the bacteria are labelled by the probe element due to the fluorescence of NBD
  fluorescence of the cleaved TAMRA compound (spectrophotometer, ex 525 nm, Em 580 nm): the fluorescence of the cleaved TAMRA compound increases in an elastase dependent manner and are inhibited with an elastase inhibitor such as sivelestat
